The results in this text go back to article PMC2267068, “Comparative Analysis of Metal Binding Characteristics of Copper Chaperone Proteins, Atx1 and ATOX1” (Bioinorganic Chemistry and Applications, 2004).

For data set [1], the target named is T1, ATOX1 (human copper chaperone), wild type (human), O00244.
T1 chain: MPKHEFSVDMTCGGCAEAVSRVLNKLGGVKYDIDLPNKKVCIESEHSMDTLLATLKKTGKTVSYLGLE
Put plainly: SEC; Bio-Gel P-10 column (1.5 x 60 cm), 20 mM MES pH 6.0; Cd(II) complex (metal 1:1, DTT 3:1); 0.3, 0.5 and 0.3 mM ATOX1, C41S-ATOX1 and Atx1; size against myoglobin (18 kDa) and cytochrome C (12.5 kDa). The settings on record: remark: other sources report otherwise.

The target in data set [2] is T1, ATOX1 (human copper chaperone), wild …. Put plainly: cross-linking; Hg(II) + DTT; DMS or EGS for ATOX1, EGS for Atx1; products on SDS-PAGE. The settings on record: remark: other sources report otherwise.
Data set [3] has the same target. Put plainly: cross-linking; DMS (spacer arm 11 A), Cd(II) + DTT; products on SDS-PAGE. The settings on record: remark: other sources report otherwise.
The target is the same in data set [4]. Put plainly: cross-linking; metal complexes + DTT (which metals not told), DMS or EGS; faint higher bands on SDS-PAGE. The settings on record: remark: other sources report otherwise.
Data set [5] shares this target. Put plainly: cross-linking; EGS (spacer arm 16.1 A), Cd(II) + DTT; products on SDS-PAGE. The settings on record: remark: other sources report otherwise.
Data set [6] has the same target. Put plainly: SEC; Bio-Gel P-10 column (1.5 x 60 cm), 20 mM MES pH 6.0; reduced apoprotein (+DTT 3:1); 0.3, 0.5 and 0.3 mM ATOX1, C41S-ATOX1 and Atx1; size against myoglobin (18 kDa) and cytochrome C (12.5 kDa). To be noted: remark: other sources report otherwise. For orientation: Size exclusion chromatography separates by hydrodynamic size, large species first.
Data set [7] concerns the molecule itself. Described as above.
Data set [8] concerns the target T2, Atx1 (yeast copper chaperone) (yeast (Saccharomyces cerevisiae)), P38636.
T2 chain: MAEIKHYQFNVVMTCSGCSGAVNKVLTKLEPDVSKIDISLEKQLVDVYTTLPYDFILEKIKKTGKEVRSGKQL
Put plainly: SEC; Bio-Gel P-10 column (1.5 x 60 cm), 20 mM MES pH 6.0; Cd(II) complex (metal 1:1, DTT 3:1); 0.3, 0.5 and 0.3 mM ATOX1, C41S-ATOX1 and Atx1; size against myoglobin (18 kDa) and cytochrome C (12.5 kDa). To be noted: remark: other sources report otherwise.

Data set [9] deals with T2, Atx1 (yeast copper chaperone) (yeast …). Put plainly: cross-linking; Hg(II) + DTT; DMS or EGS for ATOX1, EGS for Atx1; products on SDS-PAGE. To be noted: remark: other sources report otherwise.
Data set [10] shares this target. Put plainly: cross-linking; EGS (spacer arm 16.1 A), Cd(II) + DTT; products on SDS-PAGE. The settings on record: remark: other sources report otherwise.
Data set [11] shares this target. Put plainly: SEC; Bio-Gel P-10 column (1.5 x 60 cm), 20 mM MES pH 6.0; reduced apoprotein (+DTT 3:1); 0.3, 0.5 and 0.3 mM ATOX1, C41S-ATOX1 and Atx1; size against myoglobin (18 kDa) and cytochrome C (12.5 kDa). The settings on record: remark: other sources report otherwise.

Numbering of substitutions follows the chain as printed. Names may count otherwise. “And” between values parts separate entries of the source, which are not always exact repeats. Identical values can stand only once.

B1: ATOX1 (human copper chaperone), wild type, O00244 1-68 (natural protein)
chain: T1 chain
By stoichiometry N is commonly meant the number of molecules, sites or subunits per partner or assembly. For the molecule B1, the stoichiometry N in data set [1] is 2; in data set [2] it was 2; in data set [3], 2; in [4], 3 and 4; in data set [5], 2; in data set [6], 2.

B2: C41S-ATOX1 (natural protein, human, UniProt O00244 1-68, looked up)
chain: T1 chain with C41S
notes: ATOX1 (HAH1), human copper chaperone, with the non-conserved Cys 41 mutated to Ser; Made on the ATOX1 construct in pGEX-6P-2 to imitate Atx1, which lacks this Cys; also called C41S-ATOXI; source: E. coli BL21 (DE3), GST fusion from pGEX-6P-2, purified, GST removed with PreScission protease; not shown: GST, N-terminal, cleaved
B2: in data set [7], the “stoichiometry N” value was 2.

B3: Atx1 (yeast copper chaperone), P38636 1-73 (natural protein)
chain: T2 chain
For the molecule B3, the stoichiometry N in data set [8], in data set [9], in [10] and in data set [11] was 2 throughout.
